Data published in patent publication US20250277003A1 (OSAKA UNIVERSITY, published 2025).

Key:
WIV1-CoV spike RBD = WIV1-CoV spike RBD (WIV1-CoV); test: bead flow cytometry
BtCoV BM48-31 spike RBD = BtCoV BM48-31 spike RBD (BtCoV BM48-31); test: bead flow cytometry

B1: mAb CR3022 (antibody, V domains shown)
VH: QMQLVQSGTEVKKPGESLKISCKGSGYGFITYWIGWVRQMPGKGLEWMGIIYPGDSETRYSPSFQGQVTISADKSINTAYLQWSSLKASDTAIYYCAGGSGISTPMDVWGQGTTVTVSS
VL: not shown
gMFI (WIV1-CoV spike RBD): 22300
gMFI (BtCoV BM48-31 spike RBD): 72
